Data taken from article PMC12416549 (2024).

T1: TNFR1 (Homo sapiens, UniProt P19438)
T1 chain: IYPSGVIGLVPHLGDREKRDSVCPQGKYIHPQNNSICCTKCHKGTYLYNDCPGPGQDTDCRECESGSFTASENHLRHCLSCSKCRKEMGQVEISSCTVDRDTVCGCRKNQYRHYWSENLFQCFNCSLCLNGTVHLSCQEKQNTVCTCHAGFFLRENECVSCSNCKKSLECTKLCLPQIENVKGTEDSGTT


Biological target: T1, TNFR1
Test: yeast display SC50

| Binder | apparent Kd (screen) [nM] |
| --- | --- |
| S51A (designed binder) MTLQELLREEALRRAEAEAFRYALELLAEKFPEQKEYLLDLAEEIESQIRALSGVDVEDVRKFLDKEWAWVKELLAEHPAELAEVEAARAARLAELRAEVEAKVAA | 0.869 |
| A106C (designed binder) MTLQELLREEALRRAEAEAFRYALELLAEKFPEQKEYLLDLAEEIESQIRSLSGVDVEDVRKFLDKEWAWVKELLAEHPAELAEVEAARAARLAELRAEVEAKVAC | 1.16 |
| A98F (designed binder) MTLQELLREEALRRAEAEAFRYALELLAEKFPEQKEYLLDLAEEIESQIRSLSGVDVEDVRKFLDKEWAWVKELLAEHPAELAEVEAARAARLAELRFEVEAKVAA | 0.593 |
| A17S (designed binder) MTLQELLREEALRRAESEAFRYALELLAEKFPEQKEYLLDLAEEIESQIRSLSGVDVEDVRKFLDKEWAWVKELLAEHPAELAEVEAARAARLAELRAEVEAKVAA | 0.956 |
| L24S (designed binder) MTLQELLREEALRRAEAEAFRYASELLAEKFPEQKEYLLDLAEEIESQIRSLSGVDVEDVRKFLDKEWAWVKELLAEHPAELAEVEAARAARLAELRAEVEAKVAA | 0.869 |
| R8D (designed binder) MTLQELLDEEALRRAEAEAFRYALELLAEKFPEQKEYLLDLAEEIESQIRSLSGVDVEDVRKFLDKEWAWVKELLAEHPAELAEVEAARAARLAELRAEVEAKVAA | 0.593 |
| A83S (designed binder) MTLQELLREEALRRAEAEAFRYALELLAEKFPEQKEYLLDLAEEIESQIRSLSGVDVEDVRKFLDKEWAWVKELLAEHPAELSEVEAARAARLAELRAEVEAKVAA | 0.539 |
| A28H (designed binder) MTLQELLREEALRRAEAEAFRYALELLHEKFPEQKEYLLDLAEEIESQIRSLSGVDVEDVRKFLDKEWAWVKELLAEHPAELAEVEAARAARLAELRAEVEAKVAA | 7.78 |
| P79V (designed binder) MTLQELLREEALRRAEAEAFRYALELLAEKFPEQKEYLLDLAEEIESQIRSLSGVDVEDVRKFLDKEWAWVKELLAEHVAELAEVEAARAARLAELRAEVEAKVAA | 0.79 |
| A105E (designed binder) MTLQELLREEALRRAEAEAFRYALELLAEKFPEQKEYLLDLAEEIESQIRSLSGVDVEDVRKFLDKEWAWVKELLAEHPAELAEVEAARAARLAELRAEVEAKVEA | 0.593 |
| A76R (designed binder) MTLQELLREEALRRAEAEAFRYALELLAEKFPEQKEYLLDLAEEIESQIRSLSGVDVEDVRKFLDKEWAWVKELLREHPAELAEVEAARAARLAELRAEVEAKVAA | 0.49 |
| E43A (designed binder) MTLQELLREEALRRAEAEAFRYALELLAEKFPEQKEYLLDLAAEIESQIRSLSGVDVEDVRKFLDKEWAWVKELLAEHPAELAEVEAARAARLAELRAEVEAKVAA | 0.79 |
| E5G (designed binder) MTLQGLLREEALRRAEAEAFRYALELLAEKFPEQKEYLLDLAEEIESQIRSLSGVDVEDVRKFLDKEWAWVKELLAEHPAELAEVEAARAARLAELRAEVEAKVAA | 0.653 |
| K62M (designed binder) MTLQELLREEALRRAEAEAFRYALELLAEKFPEQKEYLLDLAEEIESQIRSLSGVDVEDVRMFLDKEWAWVKELLAEHPAELAEVEAARAARLAELRAEVEAKVAA | 0.718 |
| Q48E (designed binder) MTLQELLREEALRRAEAEAFRYALELLAEKFPEQKEYLLDLAEEIESEIRSLSGVDVEDVRKFLDKEWAWVKELLAEHPAELAEVEAARAARLAELRAEVEAKVAA | 0.142 |
| A102M (designed binder) MTLQELLREEALRRAEAEAFRYALELLAEKFPEQKEYLLDLAEEIESQIRSLSGVDVEDVRKFLDKEWAWVKELLAEHPAELAEVEAARAARLAELRAEVEMKVAA | 0.718 |
| D40F (designed binder) MTLQELLREEALRRAEAEAFRYALELLAEKFPEQKEYLLFLAEEIESQIRSLSGVDVEDVRKFLDKEWAWVKELLAEHPAELAEVEAARAARLAELRAEVEAKVAA | 18.3 |
| I49Y (designed binder) MTLQELLREEALRRAEAEAFRYALELLAEKFPEQKEYLLDLAEEIESQYRSLSGVDVEDVRKFLDKEWAWVKELLAEHPAELAEVEAARAARLAELRAEVEAKVAA | 2.48 |

| Binder | apparent Kd (screen) [nM] |
| --- | --- |
| A23K (designed binder) MTLQELLREEALRRAEAEAFRYKLELLAEKFPEQKEYLLDLAEEIESQIRSLSGVDVEDVRKFLDKEWAWVKELLAEHPAELAEVEAARAARLAELRAEVEAKVAA | 0.539 |
| L52W (designed binder) MTLQELLREEALRRAEAEAFRYALELLAEKFPEQKEYLLDLAEEIESQIRSWSGVDVEDVRKFLDKEWAWVKELLAEHPAELAEVEAARAARLAELRAEVEAKVAA | 0.405 |
| F20K (designed binder) MTLQELLREEALRRAEAEAKRYALELLAEKFPEQKEYLLDLAEEIESQIRSLSGVDVEDVRKFLDKEWAWVKELLAEHPAELAEVEAARAARLAELRAEVEAKVAA | 22.2 |
| W68I (designed binder) MTLQELLREEALRRAEAEAFRYALELLAEKFPEQKEYLLDLAEEIESQIRSLSGVDVEDVRKFLDKEIAWVKELLAEHPAELAEVEAARAARLAELRAEVEAKVAA | 0.79 |
| F63A (designed binder) MTLQELLREEALRRAEAEAFRYALELLAEKFPEQKEYLLDLAEEIESQIRSLSGVDVEDVRKALDKEWAWVKELLAEHPAELAEVEAARAARLAELRAEVEAKVAA | 1.27 |
| V104L (designed binder) MTLQELLREEALRRAEAEAFRYALELLAEKFPEQKEYLLDLAEEIESQIRSLSGVDVEDVRKFLDKEWAWVKELLAEHPAELAEVEAARAARLAELRAEVEAKLAA | 0.718 |
| L74A (designed binder) MTLQELLREEALRRAEAEAFRYALELLAEKFPEQKEYLLDLAEEIESQIRSLSGVDVEDVRKFLDKEWAWVKEALAEHPAELAEVEAARAARLAELRAEVEAKVAA | 1.69 |
| F31H (designed binder) MTLQELLREEALRRAEAEAFRYALELLAEKHPEQKEYLLDLAEEIESQIRSLSGVDVEDVRKFLDKEWAWVKELLAEHPAELAEVEAARAARLAELRAEVEAKVAA | 1.4 |
| R97V (designed binder) MTLQELLREEALRRAEAEAFRYALELLAEKFPEQKEYLLDLAEEIESQIRSLSGVDVEDVRKFLDKEWAWVKELLAEHPAELAEVEAARAARLAELVAEVEAKVAA | 0.49 |
| L3I (designed binder) MTIQELLREEALRRAEAEAFRYALELLAEKFPEQKEYLLDLAEEIESQIRSLSGVDVEDVRKFLDKEWAWVKELLAEHPAELAEVEAARAARLAELRAEVEAKVAA | 0.539 |
| R92C (designed binder) MTLQELLREEALRRAEAEAFRYALELLAEKFPEQKEYLLDLAEEIESQIRSLSGVDVEDVRKFLDKEWAWVKELLAEHPAELAEVEAARAACLAELRAEVEAKVAA | 0.718 |
| G54V (designed binder) MTLQELLREEALRRAEAEAFRYALELLAEKFPEQKEYLLDLAEEIESQIRSLSVVDVEDVRKFLDKEWAWVKELLAEHPAELAEVEAARAARLAELRAEVEAKVAA | 0.653 |
| R21N (designed binder) MTLQELLREEALRRAEAEAFNYALELLAEKFPEQKEYLLDLAEEIESQIRSLSGVDVEDVRKFLDKEWAWVKELLAEHPAELAEVEAARAARLAELRAEVEAKVAA | 0.653 |
| E18Y (designed binder) MTLQELLREEALRRAEAYAFRYALELLAEKFPEQKEYLLDLAEEIESQIRSLSGVDVEDVRKFLDKEWAWVKELLAEHPAELAEVEAARAARLAELRAEVEAKVAA | 0.539 |
| K30C (designed binder) MTLQELLREEALRRAEAEAFRYALELLAECFPEQKEYLLDLAEEIESQIRSLSGVDVEDVRKFLDKEWAWVKELLAEHPAELAEVEAARAARLAELRAEVEAKVAA | 0.539 |
| E73P (designed binder) MTLQELLREEALRRAEAEAFRYALELLAEKFPEQKEYLLDLAEEIESQIRSLSGVDVEDVRKFLDKEWAWVKPLLAEHPAELAEVEAARAARLAELRAEVEAKVAA | 5.31 |
| I49Q (designed binder) MTLQELLREEALRRAEAEAFRYALELLAEKFPEQKEYLLDLAEEIESQQRSLSGVDVEDVRKFLDKEWAWVKELLAEHPAELAEVEAARAARLAELRAEVEAKVAA | 0.368 |
